Data taken from publication PMC3232247.

Target: T1, RGSZ2 RH region (RGS box), recombinant, GST-free (murine)
T1 sequence (Q9QZB0 whole entry, looked up): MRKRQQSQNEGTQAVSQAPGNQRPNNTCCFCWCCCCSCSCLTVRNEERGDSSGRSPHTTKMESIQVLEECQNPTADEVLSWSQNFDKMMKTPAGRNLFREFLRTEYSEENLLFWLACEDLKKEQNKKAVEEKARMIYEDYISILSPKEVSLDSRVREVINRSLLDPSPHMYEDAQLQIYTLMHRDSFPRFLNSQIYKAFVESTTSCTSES

k cat of GTP hydrolysis by Gαi, single turnover, with RGSZ2 RH and free SUMO1 (4.0 with RH without SUMO1; 2.2 for Gαi alone): 0.0417 s⁻¹
Substance: SUMO1 (Small Ubiquitin-like MOdifier 1) (from UniProt P63165 1-97) (natural protein)
